Test results published in the supplement of paper PMC11246515.
± gives the standard deviation of the averaged measurements.

Assay: total protein half-life in vivo (active degradation + dilution); higher = more stable protein
[1] = E. coli NCM3722 delta-clpP delta-lon delta-hslV, growth: N-lim chemostat, doubling time 6 h
[2] = E. coli NCM3722 delta-clpP, growth: N-lim chemostat, doubling time 6 h
[3] = E. coli NCM3722 delta-hslV, growth: N-lim chemostat, doubling time 6 h
[4] = E. coli NCM3722 delta-lon, growth: N-lim chemostat, doubling time 6 h
[5] = E. coli NCM3722 delta-smpB, growth: N-lim chemostat, doubling time 6 h
[6] = wild type E. coli NCM3722, growth: C-lim chemostat, doubling time 3 h
[7] = wild type E. coli NCM3722, growth: C-lim chemostat, doubling time 6 h
[8] = wild type E. coli NCM3722, growth: C-lim chemostat, doubling time 12 h
[9] = wild type E. coli NCM3722, growth: N-lim chemostat, doubling time 6 h
[10] = wild type E. coli NCM3722, growth: N-lim chemostat, doubling time 12 h
[11] = wild type E. coli NCM3722, growth: P-lim chemostat, doubling time 6 h
[12] = wild type E. coli NCM3722, growth: P-lim chemostat, doubling time 12 h

Sequence: MSDERYQQRQQRVKEKVDARVAQAQDERGIIIVFTGNGKGKTTAAFGTATRAVGHGKKVGVVQFIKGTWPNGERNLLEPHGVEFQVMATGFTWDTQNRESDTAACREVWQHAKRMLADSSLDMVLLDELTYMVAYDYLPLEEVVQALNERPHQQTVIITGRGCHRDILELADTVSELRPVKHAFDAGVKAQIGIDY [P0A9H5]
- total protein half-life in vivo [1]: 4.8 ± 0.41 h
- total protein half-life in vivo [2]: 4.52 ± 0.17 h
- total protein half-life in vivo [3]: 4.27 ± 0.56 h
- total protein half-life in vivo [4]: 5.29 ± 1.2 h
- total protein half-life in vivo [5]: 4.17 ± 0.17 h
- total protein half-life in vivo [6]: 3.41 ± 0.32 h
- total protein half-life in vivo [7]: 5.05 ± 0.13 h
- total protein half-life in vivo [8]: 9.56 ± 0.6 h
- total protein half-life in vivo [9]: 4.235 ± 0.024 h
- total protein half-life in vivo [10]: 6.63 ± 0.33 h
- total protein half-life in vivo [11]: 5.852 ± 0.021 h
- total protein half-life in vivo [12]: 11 ± 0.43 h

Sequence: MSDIALTVSILALVAVVGLFIGNVKFRGIGLGIGGVLFGGIIVGHFVSQAGMTLSSDMLHVIQEFGLILFVYTIGIQVGPGFFASLRVSGLRLNLFAVLIVIIGGLVTAILHKLFDIPLPVVLGIFSGAVTNTPALGAGQQILRDLGTPMEMVDQMGMSYAMAYPFGICGILFTMWMLRVIFRVNVETEAQQHESSRTNGGALIKTINIRVENPNLHDLAIKDVPILNGDKIICSRLKREETLKVPSPDTIIQLGDLLHLVGQPADLHNAQLVIGQEVDTSLSTKGTDLRVERVVVTNENVLGKRIRDLHFKERYDVVISRLNRAGVELVASGDISLQFGDILNLVGRPSAIDAVANVLGNAQQKLQQVQMLPVFIGIGLGVLLGSIPVFVPGFPAALKLGLAGGPLIMALILGRIGSIGKLYWFMPPSANLALRELGIVLFLSVVGLKSGGDFVNTLVNGEGLSWIGYGALITAVPLITVGILARMLAKMNYLTMCGMLAGSMTDPPALAFANNLHPTSGAAALSYATVYPLVMFLRIITPQLLAVLFWSIG
- total protein half-life in vivo [2]: 5.7 ± 0.54 h
- total protein half-life in vivo [3]: 6.35 h
- total protein half-life in vivo [4]: 5.52 ± 0.89 h
- total protein half-life in vivo [5]: 6.03 ± 0.39 h
- total protein half-life in vivo [6]: 3.27 ± 0.38 h
- total protein half-life in vivo [7]: 5.33 ± 1.1 h
- total protein half-life in vivo [8]: 11.4 ± 1.6 h
- total protein half-life in vivo [9]: 5.98 ± 0.39 h
- total protein half-life in vivo [10]: 10.4 ± 0.3 h
- total protein half-life in vivo [11]: 5.7 ± 0.059 h
- total protein half-life in vivo [12]: 9.94 ± 1.5 h

Sequence: MSDMAERLALHEFTENAYLNYSMYVIMDRALPFIGDGLKPVQRRIVYAMSELGLNASAKFKKSARTVGDVLGKYHPHGDSACYEAMVLMAQPFSYRYPLVDGQGNWGAPDDPKSFAAMRYTESRLSKYSELLLSELGQGTADWVPNFDGTLQEPKMLPARLPNILLNGTTGIAVGMATDIPPHNLREVAQAAIALIDQPKTTLDQLLDIVQGPDYPTEAEIITSRAEIRKIYENGRGSVRMRAVWKKEDGAVVISALPHQVSGARVLEQIAAQMRNKKLPMVDDLRDESDHENPTRLVIVPRSNRVDMDQVMNHLFATTDLEKSYRINLNMIGLDGRPAVKNLLEILSEWLVFRRDTVRRRLNYRLEKVLKRLHILEGLLVAFLNIDEVIEIIRNEDEPKPALMSRFGLTETQAEAILELKLRHLAKLEEMKIRGEQSELEKERDQLQGILASERKMNNLLKKELQADAQAYGDDRRSPLQEREEAKAMSEHDMLPSEPVTIVLSQMGWVRSAKGHDIDAPGLNYKAGDSFKAAVKGKSNQPVVFVDSTGRSYAIDPITLPSARGQGEPLTGKLTLPPGATVDHMLMESDDQKLLMASDAGYGFVCTFNDLVARNRAGKALITLPENAHVMPPVVIEDASDMLLAITQAGRMLMFPVSDLPQLSKGKGNKIINIPSAEAARGEDGLAQLYVLPPQSTLTIHVGKRKIKLRPEELQKVTGERGRRGTLMRGLQRIDRVEIDSPRRASSGDSEE [P0AFI2]
- total protein half-life in vivo [1]: 5.85 ± 0.14 h
- total protein half-life in vivo [2]: 6.82 ± 1.4 h
- total protein half-life in vivo [3]: 3.67 ± 0.47 h
- total protein half-life in vivo [4]: 3.93 ± 0.34 h
- total protein half-life in vivo [5]: 3.2 ± 0.17 h
- total protein half-life in vivo [6]: 2.44 ± 0.17 h
- total protein half-life in vivo [7]: 3.745 ± 0.031 h
- total protein half-life in vivo [8]: 5.99 ± 0.32 h
- total protein half-life in vivo [9]: 3.42 ± 0.22 h
- total protein half-life in vivo [10]: 5.17 ± 0.29 h
- total protein half-life in vivo [11]: 2.947 ± 0.025 h
- total protein half-life in vivo [12]: 5.43 ± 0.56 h

Sequence: MSDMHSLLIAAILGVVEGLTEFLPVSSTGHMIIVGHLLGFEGDTAKTFEVVIQLGSILAVVVMFWRRLFGLIGIHFGRPLQHEGESKGRLTLIHILLGMIPAVVLGLLFHDTIKSLFNPINVMYALVVGGLLLIAAECLKPKEPRAPGLDDMTYRQAFMIGCFQCLALWPGFSRSGATISGGMLMGVSRYAASEFSFLLAVPMMMGATALDLYKSWGFLTSGDIPMFAVGFITAFVVALIAIKTFLQLIKRISFIPFAIYRFIVAAAVYVVFF
- total protein half-life in vivo [2]: > 8 h
- total protein half-life in vivo [4]: 6.08 h
- total protein half-life in vivo [5]: 5.89 h
- total protein half-life in vivo [6]: > 4 h
- total protein half-life in vivo [8]: 11.9 h
- total protein half-life in vivo [11]: 6.83 ± 0.96 h

Sequence: MSDNIRVGLIGYGYASKTFHAPLIAGTPGQELAVISSSDETKVKADWPTVTVVSEPKHLFNDPNIDLIVIPTPNDTHFPLAKAALEAGKHVVVDKPFTVTLSQARELDALAKSLGRVLSVFHNRRWDSDFLTLKGLLAEGVLGEVAYFESHFDRFRPQVRDRWREQGGPGSGIWYDLAPHLLDQAITLFGLPVSMTVDLAQLRPGAQSTDYFHAILSYPQRRVILHGTMLAAAESARYIVHGSRGSYVKYGLDPQEERLKNGERLPQEDWGYDMRDGVLTRVEGEERVEETLLTVPGNYPAYYAAIRDALNGDGENPVPASQAIQVMELIELGIESAKHRATLCLA
- total protein half-life in vivo [1]: 5.37 ± 0.71 h
- total protein half-life in vivo [2]: 4.69 ± 0.12 h
- total protein half-life in vivo [3]: 4.729 ± 0.033 h
- total protein half-life in vivo [4]: 5.58 ± 0.43 h
- total protein half-life in vivo [5]: 4.176 ± 0.0077 h
- total protein half-life in vivo [6]: 3.26 ± 0.26 h
- total protein half-life in vivo [7]: 5.54 ± 0.26 h
- total protein half-life in vivo [8]: 9.43 ± 2.6 h
- total protein half-life in vivo [9]: 5.05 ± 0.36 h
- total protein half-life in vivo [10]: 10.5 ± 0.45 h
- total protein half-life in vivo [11]: 5.48 ± 0.27 h
- total protein half-life in vivo [12]: 13.8 ± 0.79 h

Sequence: MSDQLQMTDGMHIIVEALKQNNIDTIYGVVGIPVTDMARHAQAEGIRYIGFRHEQSAGYAAAASGFLTQKPGICLTVSAPGFLNGLTALANATVNGFPMIMISGSSDRAIVDLQQGDYEELDQMNAAKPYAKAAFRVNQPQDLGIALARAIRVSVSGRPGGVYLDLPANVLAATMEKDEALTTIVKVENPSPALLPCPKSVTSAISLLAKAERPLIILGKGAAYSQADEQLREFIESAQIPFLPMSMAKGILEDTHPLSAAAARSFALANADVVMLVGARLNWLLAHGKKGWAADTQFIQLDIEPQEIDSNRPIAVPVVGDIASSMQGMLAELKQNTFTTPLVWRDILNIHKQQNAQKMHEKLSTDTQPLNYFNALSAVRDVLRENQDIYLVNEGANTLDNARNIIDMYKPRRRLDCGTWGVMGIGMGYAIGASVTSGSPVVAIEGDSAFGFSGMEIETICRYNLPVTIVIFNNGGIYRGDGVDLSGAGAPSPTDLLHHARYDKLMDAFRGVGYNVTTTDELRHALTTGIQSRKPTIINVVIDPAAGTESGHITKLNPKQVAGN [P0AFI0]
- total protein half-life in vivo [1]: 5.61 ± 0.33 h
- total protein half-life in vivo [5]: 3.08 h
- total protein half-life in vivo [6]: > 4 h
- total protein half-life in vivo [7]: 3.11 h
- total protein half-life in vivo [11]: 4.43 h
- total protein half-life in vivo [12]: 9.26 ± 0.98 h
